Broadly, the stoichiometry N is the number of molecules, sites or subunits per partner or assembly.

Two proteins from article doi:10.1101/2023.09.07.556688 (bioRxiv, 2023) can be followed below.

The data set “negative-stain EM” deals with the molecule itself. In words: negative-stain EM.
The data set “cryo-EM structure” concerns the molecule itself. As to the kind of experiment: cryo-EM structure.

B1: truncated atP5CS2 protein consisting of residues 1-290 (atP5CS2-GK) (domain or fragment, Arabidopsis thaliana, UniProt P54888 1-290, looked up)
chain: MTEIDRSRAFAKDVKRIVVKVGTAVVTGKGGRLALGRLGAICEQLAELNSDGFEVILVSSGAVGLGRQRLRYRQLVNSSFADLQKPQMELDGKACAGVGQSSLMAYYETMFDQLDVTVAQMLVTDSSFRDKDFRKQLSETVKAMLRMRVIPVFNENDAISTRRAPYKDSTGIFWDNDSLAALLSLELKADLLILLSDVEGLYTGPPSDSTSKLIHTFIKEKHQDEITFGEKSKLGRGGMTAKVKAAVNAAYGGVPVIITSGYAAENISKVLRGLRVGTLFHQDAHLWAPV
Regarding B1, in “negative-stain EM”, the binding result was “binds”.

B2: Arabidopsis thaliana Delta-1-pyrroline-5-carboxylate synthase 2 (atP5CS2), wild type (enzyme, UniProt P54888 1-726, looked up)
chain: MTEIDRSRAFAKDVKRIVVKVGTAVVTGKGGRLALGRLGAICEQLAELNSDGFEVILVSSGAVGLGRQRLRYRQLVNSSFADLQKPQMELDGKACAGVGQSSLMAYYETMFDQLDVTVAQMLVTDSSFRDKDFRKQLSETVKAMLRMRVIPVFNENDAISTRRAPYKDSTGIFWDNDSLAALLSLELKADLLILLSDVEGLYTGPPSDSTSKLIHTFIKEKHQDEITFGEKSKLGRGGMTAKVKAAVNAAYGGVPVIITSGYAAENISKVLRGLRVGTLFHQDAHLWAPVVDTTSRDMAVAARESSRKLQALSSEDRKQILHDIANALEVNEKTIKAENDLDVAAAQEAGYEESLVARLVMKPGKISSLAASVRQLAEMEDPIGRVLKKTQVADDLILEKTSSPIGVLLIVFESRPDALVQIASLAIRSGNGLLLKGGKEARRSNAILHKVITDAIPETVGGKLIGLVTSREEIPDLLKLDDVIDLVIPRGSNKLVSQIKNSTKIPVLGHADGICHVYVDKSGKLDMAKRIVSDAKLDYPAACNAMETLLVHKDLEQNGFLDDLIYVLQTKGVTLYGGPRASAKLNIPETKSFHHEYSSKACTVEIVEDVYGAIDHIHQHGSAHTDCIVTEDSEVAEIFLRQVDSAAVFHNASTRFSDGFRFGLGAEVGISTSRIHARGPVGVEGLLTTRWIMRGKGQVVDGDNGIVYTHKDLPVLQRTEAVENGI
Take B2: the “stoichiometry N” value in “cryo-EM structure” stood at 4.
